The test concerns the target T1, SipB (recombinant, His-tag technology, expressed in E. coli) (Salmonella, UniProt Q56019 1-593).
T1 construct: also called first 'translocator' protein SipB from SPI-1
T1 sequence: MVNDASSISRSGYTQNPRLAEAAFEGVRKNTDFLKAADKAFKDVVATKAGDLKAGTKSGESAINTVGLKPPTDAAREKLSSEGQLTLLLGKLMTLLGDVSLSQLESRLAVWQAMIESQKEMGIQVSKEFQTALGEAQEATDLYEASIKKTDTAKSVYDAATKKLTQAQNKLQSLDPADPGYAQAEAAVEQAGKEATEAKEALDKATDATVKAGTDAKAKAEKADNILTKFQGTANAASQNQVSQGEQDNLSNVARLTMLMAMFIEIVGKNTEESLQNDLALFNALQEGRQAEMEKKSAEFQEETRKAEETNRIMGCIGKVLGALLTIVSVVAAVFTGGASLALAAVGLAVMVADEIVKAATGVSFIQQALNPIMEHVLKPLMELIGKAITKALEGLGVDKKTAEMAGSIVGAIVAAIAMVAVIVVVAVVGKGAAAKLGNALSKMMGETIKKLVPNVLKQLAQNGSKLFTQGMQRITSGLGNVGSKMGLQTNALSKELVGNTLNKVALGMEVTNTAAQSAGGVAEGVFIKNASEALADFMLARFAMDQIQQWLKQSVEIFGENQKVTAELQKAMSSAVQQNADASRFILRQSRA
The experiment in a line: co-expression in E. coli and co-purification by column chromatography.

This note sets out measurements from US20160220655A1 (BOARD OF REGENTS FOR OKLAHOMA STATE UNIVERSITY, published 2016).

B1: SicA, cognate chaperone of SipB (other)
chain: MDYQNNVSEERVAEMIWDAVSEGATLKDVHGIPQDMMDGLYAHAYEFYNQGRLDEAETFFRFLCIYDFYNPDYTMGLAAVCQLKKQFQKACDLYAVAFTLLKNDYRPVFFTGQCQLLMRKAAKARQCFELVNERTEDESLRAKALVYLEALKTAETEQHSEQEKE
In the case of B1, the binding result is “binds”.
